Data: patent publication US20230329294A1 (CLARA FOODS, published 2023)

Biological target: bovine trypsin (bovine, UniProt P00760 24-246)
Experiment: cell-based or functional assay

Sequence of bovine trypsin (P00760 24-246): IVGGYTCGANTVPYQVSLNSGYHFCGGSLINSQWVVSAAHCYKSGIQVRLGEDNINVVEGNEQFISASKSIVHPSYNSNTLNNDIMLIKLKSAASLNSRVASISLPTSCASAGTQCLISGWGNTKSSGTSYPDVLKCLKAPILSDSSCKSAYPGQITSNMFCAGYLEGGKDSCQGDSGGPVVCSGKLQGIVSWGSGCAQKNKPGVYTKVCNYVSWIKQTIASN

Trypsin inhibition activity: 13700 TIU/g
B1: native chicken ovomucoid (other)
chain: AEVDCSRFPNATDKEGKDVLVCNKDLRPICGTDGVTYTNDCLLCAYSIEFGTNISKEHDGECKETVPMNCSSYANTTSEDGKVMVLCNRAFNPVCGTDGVTYDNECLLCAHKVEQGASVDKRHDGGCRKELAAVSVDCSEYPKPDCTAEDRPLCGSDNKTYGNKCNFCNAVVESNGTLTLSHFGKC
modifications: complex branched N-linked glycosylation (that includes mannose)
